For the assay, the target named is T1, human IL-18R1 and IL-18RAP on IL-18 Reporter HEK 293 Cells (human, UniProt Q13478 19-541; O95256 20-599).
T1 sequence (looked up) 1: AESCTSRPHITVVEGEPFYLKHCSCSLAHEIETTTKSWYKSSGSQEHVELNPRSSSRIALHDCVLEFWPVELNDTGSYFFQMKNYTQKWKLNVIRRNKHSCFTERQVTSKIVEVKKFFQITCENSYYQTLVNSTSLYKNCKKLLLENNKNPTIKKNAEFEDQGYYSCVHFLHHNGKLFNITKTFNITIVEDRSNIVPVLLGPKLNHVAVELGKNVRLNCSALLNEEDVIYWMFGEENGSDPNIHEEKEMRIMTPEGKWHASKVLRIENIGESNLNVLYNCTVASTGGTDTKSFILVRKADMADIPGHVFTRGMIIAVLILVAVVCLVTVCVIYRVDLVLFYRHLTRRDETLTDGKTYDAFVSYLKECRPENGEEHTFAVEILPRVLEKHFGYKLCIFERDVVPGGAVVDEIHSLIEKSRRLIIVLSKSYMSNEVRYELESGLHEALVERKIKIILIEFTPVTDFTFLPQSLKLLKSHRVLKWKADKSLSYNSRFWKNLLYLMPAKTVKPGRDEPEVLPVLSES
T1 sequence (looked up) 2: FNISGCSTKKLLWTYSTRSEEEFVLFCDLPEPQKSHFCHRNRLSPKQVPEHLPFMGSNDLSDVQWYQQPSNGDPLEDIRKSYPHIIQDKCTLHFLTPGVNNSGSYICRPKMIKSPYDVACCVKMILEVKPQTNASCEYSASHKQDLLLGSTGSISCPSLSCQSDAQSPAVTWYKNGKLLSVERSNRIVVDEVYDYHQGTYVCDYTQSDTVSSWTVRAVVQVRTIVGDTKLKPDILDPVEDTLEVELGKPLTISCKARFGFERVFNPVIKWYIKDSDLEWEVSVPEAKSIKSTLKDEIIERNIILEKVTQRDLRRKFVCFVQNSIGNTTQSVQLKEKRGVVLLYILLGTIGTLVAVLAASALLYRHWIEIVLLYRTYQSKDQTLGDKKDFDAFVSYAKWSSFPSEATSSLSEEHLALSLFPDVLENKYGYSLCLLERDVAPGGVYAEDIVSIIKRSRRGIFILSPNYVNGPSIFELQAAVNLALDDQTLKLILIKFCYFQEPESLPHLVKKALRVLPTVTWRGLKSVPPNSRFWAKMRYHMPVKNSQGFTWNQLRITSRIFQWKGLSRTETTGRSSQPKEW
The experiment in a line: cell-based or functional assay.

Numbering of substitutions follows the chain as printed.

B1: hzWio-02-01-Hm1 (bispecific antibody)
chain: EVQLVESGGGLVQPGGSLRLSCAASGHAYDNACMGWFRQAPGKEREGVASIHLRDRTYYADSVKGRFTISRDNSKNTLYLQMNSLRAEDTAVYYCASSNICNALNLQGNTYWGQGTLVTVSSGGGGSEVQLLESGGGLVQPGGSLRLSCAASGYTYGPYCMGWFRQAPGKEREGVAAVGGDARTWYGNSVKGRFTISRDNSKNTLYLQMNSLRAEDTAVYYCAADFDRTVCSDDIYDYTYRGQGTLVTVSSHHHHHH
What is called EC50 is the midpoint of the concentration-response curve. Lower therefore signals higher potency in that assay. B1 yielded an EC50 of 1.25 ng/mL and a Top530nm of 0.909.

B2: hzWio-02-01-Hm5 (bispecific antibody)
chain: B1 chain with H27T, N31H
Molecule B2 registered an EC50 of 1.11 ng/mL and a Top530nm of 1.01.

B3: hzWio-02-01-Hm16 (bispecific antibody)
chain: B1 chain with H27T, Y58H
On to B3, for which a half-maximal effect (EC50) was put at 1.15 ng/mL and the Top530nm was 1.11.

B4: hzWio-02-01-Hm11 (bispecific antibody)
chain: B1 chain with H27T, L53H
For B4, a half-maximal response (EC50) required 1.42 ng/mL and the Top530nm came out at 1.02.

B5: hzWio-02-01-Hm13 (bispecific antibody)
chain: B1 chain with H27T, D55H
Turning to B5, a half-maximal effect (EC50) was put at 1.12 ng/mL and the Top530nm worked out at 1.22.

B6: hzWio-02-01-Hm8 (bispecific antibody)
chain: B1 chain with H27T, G35H
As to B6, the EC50 came out at 1.01 ng/mL and the Top530nm turned out to be 1.51.

B7: hzWio-02-01-Hm7 (bispecific antibody)
chain: B1 chain with H27T, M34H
B7 showed an EC50 of 1.12 ng/mL and a Top530nm of 1.03.

B8: hzWio-02-01-Hm2 (bispecific antibody)
chain: B1 chain with H27T, A28H
Molecule B8 came in with an EC50 of 2.27 ng/mL and a Top530nm of 1.1.

B9: hzWio-02-01-Hm17 (bispecific antibody)
chain: B1 chain with H27T, Y59H
In the case of B9, the concentration giving a half-maximal response (EC50) was 1.47 ng/mL and the Top530nm is 1.

B10: hzWio-02-01-Hm6 (bispecific antibody)
chain: B1 chain with H27T, A32H
Take B10: the EC50 was 1.08 ng/mL and the Top530nm was 0.894.

B11: hzWio-02-01-Hm4 (bispecific antibody)
chain: B1 chain with H27T, D30H
In the case of B11, the EC50 was determined as 0.941 ng/mL and the Top530nm came to 1.08.

B12: hzWio-02-01-Hm14 (bispecific antibody)
chain: B1 chain with H27T, R56H
Regarding B12, the EC50 was 1.26 ng/mL and the Top530nm turned out to be 1.25.

B13: hzWio-02-01-Hm10 (bispecific antibody)
chain: B1 chain with H27T, I51H
Take B13: the EC50 came out at 1.27 ng/mL and the Top530nm stood at 1.1.

B14: hzWio-02-01-Hm3 (bispecific antibody)
chain: B1 chain with H27T, Y29H
With B14, the half-maximal effective concentration (EC50) amounted to 1.14 ng/mL and the Top530nm was 1.08.

B15: hzWio-02-01-Hm12 (bispecific antibody)
chain: B1 chain with H27T, R54H
In turn, B15 had an EC50 of 0.68 ng/mL and a Top530nm of 1.17.

B16: hzWio-02-01-Hm15 (bispecific antibody)
chain: B1 chain with H27T, T57H
As to B16, the EC50 is 1.54 ng/mL and the Top530nm came to 1.13.

B17: hzWio-02-01-Hm9 (bispecific antibody)
chain: B1 chain with H27T, S50H
In the case of B17, it took 2.14 ng/mL to reach a half-maximal effect (EC50) and the Top530nm was 0.9.

Source of the values: EP4711384A1 (WIO Bioscience Co., Ltd., dated 2026).
